Reference: the supplement of paper PMC9112550, “Optimization of the antimicrobial peptide Bac7 by deep mutational scanning” (BMC Biology, 2022)

tested on: Escherichia coli TOP10; experiment: shrunken log2 fold change of peptide-encoding DNA abundance (4.5 h post-induction vs induction); higher = less antimicrobial activity (less host growth inhibition); settings: time post-induction: 4.5 h; library: site-saturation at positions 5, 18, 19, 20
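Further: peptides expressed intracellularly from a pBAD plasmid library in pooled LB shake-flask culture, induced with 0.3% L-arabinose, DNA abundance read by NGS, three biological replicates, DESeq2 with apeglm shrinkage.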

| Sequence | shrunken log2 fold change |
| --- | --- |
| RRIRSRPPRLPRPRPRPHKKPRP | -0.0645 |
| RRIRKRPPRLPRPRPRPANRPRP | 0.167 |
| RRIRARPPRLPRPRPRPAQDPRP | 0.232 |
| RRIRMRPPRLPRPRPRPNKGPRP | 0.0758 |
| RRIRRRPPRLPRPRPRPRKGPRP | 0.215 |
| RRIRPRPPRLPRPRPRPNTSPRP | -0.237 |
| RRIRDRPPRLPRPRPRPIDQPRP | -0.0222 |
| RRIRMRPPRLPRPRPRPNHIPRP | -0.407 |
| RRIRERPPRLPRPRPRPLEIPRP | 0.0282 |
| RRIRKRPPRLPRPRPRPEWVPRP | 0.478 |
| RRIRGRPPRLPRPRPRPWWSPRP | 0.00664 |
| RRIRNRPPRLPRPRPRPPFDPRP | 0.141 |
| RRIRTRPPRLPRPRPRPEDEPRP | 0.0995 |
| RRIRYRPPRLPRPRPRPPSMPRP | -0.692 |
| RRIRERPPRLPRPRPRPNGNPRP | -0.104 |
| RRIRTRPPRLPRPRPRPHADPRP | 0.0427 |
| RRIRQRPPRLPRPRPRPDSLPRP | -0.0756 |
| RRIRQRPPRLPRPRPRPVLVPRP | 0.328 |
| RRIRCRPPRLPRPRPRPMIDPRP | 0.0647 |
| RRIRLRPPRLPRPRPRPMIMPRP | -0.159 |
| RRIRFRPPRLPRPRPRPIMNPRP | -0.515 |
| RRIRGRPPRLPRPRPRPFNVPRP | -0.101 |
| RRIRFRPPRLPRPRPRPNPTPRP | 0.0233 |
| RRIRARPPRLPRPRPRPGQDPRP | 0.15 |
| RRIRARPPRLPRPRPRPDYSPRP | 0.00409 |

| Sequence | shrunken log2 fold change |
| --- | --- |
| RRIRYRPPRLPRPRPRPRFPPRP | -0.448 |
| RRIRKRPPRLPRPRPRPRDCPRP | 0.306 |
| RRIRTRPPRLPRPRPRPCLVPRP | -0.175 |
| RRIRYRPPRLPRPRPRPGSWPRP | 0.0212 |
| RRIRWRPPRLPRPRPRPQYGPRP | -0.442 |
| RRIRTRPPRLPRPRPRPSCVPRP | -0.185 |
| RRIRLRPPRLPRPRPRPHMEPRP | -0.101 |
| RRIRMRPPRLPRPRPRPDTCPRP | 1.25 |
| RRIRFRPPRLPRPRPRPVSNPRP | -0.0552 |
| RRIRTRPPRLPRPRPRPCIFPRP | -0.233 |
| RRIRARPPRLPRPRPRPTIVPRP | -0.152 |
| RRIRTRPPRLPRPRPRPDPTPRP | -0.0451 |
| RRIRRRPPRLPRPRPRPAKTPRP | 0.408 |
| RRIRERPPRLPRPRPRPEALPRP | 0.0535 |
| RRIRMRPPRLPRPRPRPGCHPRP | 0.0532 |
| RRIRIRPPRLPRPRPRPTNKPRP | -0.687 |
| RRIRRRPPRLPRPRPRPDKCPRP | -0.0562 |
| RRIRMRPPRLPRPRPRPTIWPRP | 0.52 |
| RRIRTRPPRLPRPRPRPKKDPRP | -0.147 |
| RRIRMRPPRLPRPRPRPLAAPRP | 2.64 |
| RRIRYRPPRLPRPRPRPLSGPRP | -0.0308 |
| RRIRIRPPRLPRPRPRPYGCPRP | 0.0504 |
| RRIRQRPPRLPRPRPRPHWPPRP | -0.0715 |
| RRIRTRPPRLPRPRPRPMEEPRP | -0.25 |
| RRIRMRPPRLPRPRPRPGTFPRP | -0.0326 |

| Sequence | shrunken log2 fold change |
| --- | --- |
| RRIRWRPPRLPRPRPRPGCMPRP | 0.464 |
| RRIRGRPPRLPRPRPRPLKSPRP | 0.426 |
| RRIRVRPPRLPRPRPRPKHYPRP | -0.459 |
| RRIRGRPPRLPRPRPRPRWNPRP | 0.423 |
| RRIRMRPPRLPRPRPRPKESPRP | 0.939 |
| RRIRYRPPRLPRPRPRPTGAPRP | 0.136 |
| RRIRMRPPRLPRPRPRPLIKPRP | 0.0477 |
| RRIRWRPPRLPRPRPRPFPYPRP | -0.44 |
| RRIRDRPPRLPRPRPRPRPKPRP | 0.548 |
| RRIRCRPPRLPRPRPRPTHCPRP | 0.363 |
| RRIRQRPPRLPRPRPRPCMYPRP | -0.166 |
| RRIRNRPPRLPRPRPRPEKYPRP | -0.805 |
| RRIRVRPPRLPRPRPRPCLVPRP | -0.115 |
| RRIRMRPPRLPRPRPRPYQSPRP | -0.118 |
| RRIRARPPRLPRPRPRPFLGPRP | 0.0605 |
| RRIRCRPPRLPRPRPRPWWRPRP | 0.157 |
| RRIRFRPPRLPRPRPRPPAVPRP | 0.713 |
| RRIRTRPPRLPRPRPRPCSLPRP | -0.128 |
| RRIRQRPPRLPRPRPRPQHEPRP | 0.119 |
| RRIRSRPPRLPRPRPRPPIYPRP | -0.0803 |
| RRIRSRPPRLPRPRPRPRTVPRP | 0.106 |
| RRIRTRPPRLPRPRPRPDSDPRP | -0.65 |
| RRIRPRPPRLPRPRPRPEEEPRP | 0.163 |
| RRIRFRPPRLPRPRPRPLYMPRP | -0.921 |
| RRIRTRPPRLPRPRPRPLGLPRP | 0.207 |

| Sequence | shrunken log2 fold change |
| --- | --- |
| RRIRHRPPRLPRPRPRPACFPRP | -0.126 |
| RRIRIRPPRLPRPRPRPDEVPRP | -0.0316 |
| RRIRSRPPRLPRPRPRPVTVPRP | -0.057 |
| RRIRCRPPRLPRPRPRPADNPRP | -0.219 |
| RRIRARPPRLPRPRPRPTSKPRP | 0.236 |
| RRIRRRPPRLPRPRPRPMAEPRP | -0.0431 |
| RRIRWRPPRLPRPRPRPIWNPRP | -0.114 |
| RRIRPRPPRLPRPRPRPNISPRP | -0.208 |
| RRIRGRPPRLPRPRPRPEPFPRP | 0.218 |
| RRIRNRPPRLPRPRPRPREPPRP | 0.697 |
| RRIRSRPPRLPRPRPRPFDRPRP | -0.118 |
| RRIRIRPPRLPRPRPRPKCNPRP | -0.701 |
| RRIRCRPPRLPRPRPRPRETPRP | 0.647 |
| RRIRMRPPRLPRPRPRPATYPRP | 0.0281 |
| RRIRLRPPRLPRPRPRPKYIPRP | -0.603 |
| RRIRHRPPRLPRPRPRPSHAPRP | 0.0238 |
| RRIRQRPPRLPRPRPRPVNYPRP | -0.00127 |
| RRIRPRPPRLPRPRPRPHRYPRP | -0.136 |
| RRIRMRPPRLPRPRPRPVYSPRP | -0.248 |
| RRIRMRPPRLPRPRPRPVWDPRP | -0.136 |
| RRIRKRPPRLPRPRPRPDGLPRP | -0.162 |
| RRIRSRPPRLPRPRPRPSGPPRP | 0.0577 |
| RRIRIRPPRLPRPRPRPGMEPRP | -0.375 |
| RRIRARPPRLPRPRPRPSGWPRP | 0.861 |
| RRIRSRPPRLPRPRPRPPEWPRP | 0.263 |

| Sequence | shrunken log2 fold change |
| --- | --- |
| RRIRMRPPRLPRPRPRPWCFPRP | -0.144 |
| RRIRDRPPRLPRPRPRPGHVPRP | -0.0651 |
| RRIRWRPPRLPRPRPRPYHFPRP | 0.0137 |
| RRIRLRPPRLPRPRPRPTFGPRP | -0.0654 |
| RRIRYRPPRLPRPRPRPLVSPRP | -0.113 |
| RRIRWRPPRLPRPRPRPFALPRP | -0.129 |
| RRIRIRPPRLPRPRPRPKGGPRP | 0.04 |
| RRIRMRPPRLPRPRPRPDNEPRP | 0.379 |
| RRIRQRPPRLPRPRPRPIPEPRP | 0.0343 |
| RRIRERPPRLPRPRPRPGWIPRP | -0.105 |
| RRIRCRPPRLPRPRPRPFTPPRP | -0.497 |
| RRIRWRPPRLPRPRPRPEYAPRP | 0.467 |
| RRIRSRPPRLPRPRPRPCNNPRP | -0.332 |
| RRIRVRPPRLPRPRPRPDKRPRP | 0.0226 |
| RRIRHRPPRLPRPRPRPKCEPRP | -0.148 |
| RRIRYRPPRLPRPRPRPSIGPRP | -0.0122 |
| RRIRERPPRLPRPRPRPTIRPRP | -0.622 |
| RRIRYRPPRLPRPRPRPQRHPRP | -0.48 |
| RRIRVRPPRLPRPRPRPSAMPRP | 0.0604 |
| RRIRDRPPRLPRPRPRPFQQPRP | -0.0599 |
| RRIRSRPPRLPRPRPRPGLGPRP | 0.485 |
| RRIRERPPRLPRPRPRPKIRPRP | -0.121 |
| RRIRNRPPRLPRPRPRPELEPRP | 0.47 |
| RRIRDRPPRLPRPRPRPFAIPRP | -0.0496 |
| RRIRMRPPRLPRPRPRPICFPRP | 0.149 |

| Sequence | shrunken log2 fold change |
| --- | --- |
| RRIRSRPPRLPRPRPRPLSIPRP | -0.447 |
| RRIRWRPPRLPRPRPRPHLEPRP | -0.16 |
| RRIRRRPPRLPRPRPRPVRMPRP | 0.497 |
| RRIRARPPRLPRPRPRPANKPRP | 0.0442 |
| RRIRGRPPRLPRPRPRPFPAPRP | 0.757 |
| RRIRHRPPRLPRPRPRPPIDPRP | 0.065 |
| RRIRYRPPRLPRPRPRPAQKPRP | -0.0925 |
| RRIRSRPPRLPRPRPRPLFRPRP | -0.368 |
| RRIRVRPPRLPRPRPRPDVIPRP | -0.0508 |
| RRIRFRPPRLPRPRPRPIYWPRP | 0.0843 |
| RRIRRRPPRLPRPRPRPQVFPRP | 0.408 |
| RRIRKRPPRLPRPRPRPGPIPRP | 0.204 |
| RRIRWRPPRLPRPRPRPVWRPRP | 0.488 |
| RRIRWRPPRLPRPRPRPQMGPRP | -0.124 |
| RRIRDRPPRLPRPRPRPFFIPRP | -0.191 |
| RRIRQRPPRLPRPRPRPQFQPRP | -0.265 |
| RRIRSRPPRLPRPRPRPVHHPRP | 0.0874 |
| RRIRQRPPRLPRPRPRPKQQPRP | -0.141 |
| RRIRFRPPRLPRPRPRPKLPPRP | 0.404 |
| RRIRARPPRLPRPRPRPDFLPRP | 0.257 |
| RRIRKRPPRLPRPRPRPNNKPRP | -0.162 |
| RRIRARPPRLPRPRPRPNQMPRP | 0.143 |
| RRIRYRPPRLPRPRPRPTNTPRP | -1.15 |
| RRIRYRPPRLPRPRPRPRRGPRP | 0.114 |
| RRIRTRPPRLPRPRPRPNKTPRP | -0.0171 |
